Assay results: the RNAGym collection of RNA variant scans (doi:10.7554/elife.80360)

B1: HDV Ribozyme (parent)
chain: GGCCGGCAUGGUCCCAGCCUCCUCGCUGGCGCCGGCUGGGCAACAUUCCGAGGGGACCGUCCCCUCGGUAAUGGCGAAUGGGACCCA

Variants of: B1
Test: self-cleavage, relative activity (ratio to wild type); higher = more cleavage; co-transcriptional
For G55A C64G, the self-cleavage was 0.962. In the case of A56C C58U, the self-cleavage is reported as 1.07. With A56C C84G the self-cleavage was 0.755. A56C A87G showed a self-cleavage of 0.846. In the case of A56G A70G, the self-cleavage is reported as 1.14. A56G A70C showed a self-cleavage of 0.935. In the case of G55U C64A, the self-cleavage is reported as 0.94. A56C C66A gave a self-cleavage of 1.21. G55A G82A showed a self-cleavage of 0.324. Work on G55A G82C yielded a self-cleavage of 0.356. G54U C57A gave a self-cleavage of 0.997. With G54U C57U the self-cleavage was 0.993. For G54U A78C, the self-cleavage was 0.158. In the case of G55C C63G, the self-cleavage is reported as 0.888. A56C G76A gave a self-cleavage of 1.17. For A56C G76C, the self-cleavage was 1.06. G55C C64A gave a self-cleavage of 0.855. G54U C62G showed a self-cleavage of 1.08. G54U C62U gave a self-cleavage of 0.98. G55A C58G gave a self-cleavage of 0.941. In the case of A56G A78C, the self-cleavage is reported as 0.203. In the case of A56G A78U, the self-cleavage is reported as 0.181. For G55C A83U, the self-cleavage was 0.575. With G55C A83C the self-cleavage was 0.314. For G54C U69G, the self-cleavage was 1.07. For A56G C64G, the self-cleavage was 0.791. With A56C C57A the self-cleavage was 1.22. Work on A56C C57G yielded a self-cleavage of 0.978. In the case of G55C G80U, the self-cleavage is reported as 0.216. With A56C C85A the self-cleavage was 0.806. Work on A56C C85G yielded a self-cleavage of 1.04. A56C C85U showed a self-cleavage of 1.01. Work on G55A G68A yielded a self-cleavage of 0.831. G55U C58G showed a self-cleavage of 1.04. G54U U65A showed a self-cleavage of 0.513. A56G C86A gave a self-cleavage of 0.718. With G55A G81A the self-cleavage was 0.535. With G55U G82A the self-cleavage was 0.467. A56C A83G gave a self-cleavage of 1.01. Work on G54U G67A yielded a self-cleavage of 1.01. With A56G A77U the self-cleavage was 0.739. In the case of G55U U72A, the self-cleavage is reported as 0.648. G54C G80A showed a self-cleavage of 0.362. In the case of A56C U79C, the self-cleavage is reported as 0.379. A56C U65A showed a self-cleavage of 0.955. G55C A70G showed a self-cleavage of 0.848. With G55C U69A the self-cleavage was 0.973. For G55U C86G, the self-cleavage was 1.03. Variant G54U U69G has a self-cleavage of 1.03. G54U U69A showed a self-cleavage of 0.899. With A56G C58G the self-cleavage was 0.911. With G55A A56G the self-cleavage was 0.882. Work on A56G A71U yielded a self-cleavage of 0.957. A56G A71G showed a self-cleavage of 0.918. G55A U65C gave a self-cleavage of 0.863. For G55A U65A, the self-cleavage was 1.06. G54U A70G showed a self-cleavage of 1.03. Variant G55C A56G has a self-cleavage of 1.15. Work on G55C G73U yielded a self-cleavage of 0.277. Variant A56C G82A has a self-cleavage of 0.684. Work on A56C G82U yielded a self-cleavage of 0.404. With G55C C75A the self-cleavage was 0.148. For G55C C75U, the self-cleavage was 0.0361. Work on A56C A77C yielded a self-cleavage of 0.482. In the case of G54U A83U, the self-cleavage is reported as 0.446. G55U G80U gave a self-cleavage of 0.21. For G55U G80C, the self-cleavage was 0.175. With G54C U72C the self-cleavage was 0.69. With G54C U72A the self-cleavage was 0.702. G55U U65C showed a self-cleavage of 0.73. Variant A56C C86A has a self-cleavage of 0.87. For A56C C86G, the self-cleavage was 0.804. With A56G C61A the self-cleavage was 0.849. For A56G C61G, the self-cleavage was 1.12. Variant G55C C85U has a self-cleavage of 0.923. With G55C C85A the self-cleavage was 0.752. In the case of G55A G67A, the self-cleavage is reported as 0.997. Variant G54U G82A has a self-cleavage of 0.277. With G54U U60G the self-cleavage was 0.989. In the case of G54U G55A, the self-cleavage is reported as 1.01. G55A A70C showed a self-cleavage of 1.06. G55A A70U showed a self-cleavage of 0.831. Work on G55C U79C yielded a self-cleavage of 0.513. For G55U G67A, the self-cleavage was 0.881.
